Test results from ChEMBL document CHEMBL1145332, “Design of inhibitors of orotidine monophosphate decarboxylase using bioisosteric replacement and determination of inhibition kinetics” (J Med Chem, 2006).

Tests used:
[1] = substrate: O=C(O)c1cc(=O)[nH]c(=O)n1[C@@H]1O[C@H](COP(=O)(O)O)[C@@H](O)[C@H]1O; assay: Affinity for Saccharomyces cerevisiae ODCase at 25 degreeC by UV-based assay
[2] = substrate: O=C(O)c1cc(=O)[nH]c(=O)n1[C@@H]1O[C@H](COP(=O)(O)O)[C@@H](O)[C@H]1O; assay: Affinity for Plasmodium falciparum ODCase at 25 degreeC by UV-based assay
[3] = substrate: O=C(O)c1cc(=O)[nH]c(=O)n1[C@@H]1O[C@H](COP(=O)(O)O)[C@@H](O)[C@H]1O; assay: Affinity for Methanobacterium thermoautotrophicum ODCase at 55 degreeC by ITC method
[4] = substrate: O=C(O)c1cc(=O)[nH]c(=O)n1[C@@H]1O[C@H](COP(=O)(O)O)[C@@H](O)[C@H]1O; assay: Affinity for Methanobacterium thermoautotrophicum ODCase at 25 degreeC by ITC method

B1: Orotidine 5'-phosphate decarboxylase (Saccharomyces cerevisiae S288c), P03962 (protein)
chain: MSKATYKERAATHPSPVAAKLFNIMHEKQTNLCASLDVRTTKELLELVEALGPKICLLKTHVDILTDFSMEGTVKPLKALSAKYNFLLFEDRKFADIGNTVKLQYSAGVYRIAEWADITNAHGVVGPGIVSGLKQAAEEVTKEPRGLLMLAELSCKGSLATGEYTKGTVDIAKSDKDFVIGFIAQRDMGGRDEGYDWLIMTPGVGLDDKGDALGQQYRTVDDVVSTGSDIIIVGRGLFAKGRDAKVEGERYRKAGWEAYLRRCGQQN
- Km [1]: 0.7 µM

B2: Orotidine phosphate decarboxylase (Plasmodium falciparum), Q8T6J6 (protein)
chain: MGFKVKLEKRRNAINTCLCIGLDPDEKDIENFMKNEKENNYNNIKKNLKEKYINNVSIKKDILLKAPDNIIREEKSEEFFYFFNHFCFYIINETNKYALTFKMNFAFYIPYGSVGIDVLKNVFDYLYELNIPTILDMKINDIGNTVKNYRKFIFEYLKSDSCTVNIYMGTNMLKDICYDEEKNKYYSAFVLVKTTNPDSAIFQKNLSLDNKQAYVIMAQEALNMSSYLNLEQNNEFIGFVVGANSYDEMNYIRTYFPNCYILSPGIGAQNGDLHKTLTNGYHKSYEKILINIGRAITKNPYPQKAAQMYYDQINAILKQNMES
- Km [2]: 13 µM

B3: Orotidine 5'-phosphate decarboxylase (Methanobacterium thermoautotrophicum), O26232 (protein)
chain: MRSRRVDVMDVMNRLILAMDLMNRDDALRVTGEVREYIDTVKIGYPLVLSEGMDIIAEFRKRFGCRIIADFKVADIPETNEKICRATFKAGADAIIVHGFRGADSVRACLNVAEEMGREVFLLTEMSHPGAEMFIQGAADEIARMGVDLGVKNYVGPSTRPERLSRLREIIGQDSFLISPGVGAQGGDPGETLRFADAIIVGRSIYLADNPAAAAAGIIESIKDLLNP
- Km [3]: 5 µM
- Km [4]: 2 µM
